Source: the DeepSol protein solubility set

Experiment: soluble on expression in E. coli; label from the status in PepcDB or PDB records
With “MSLEPVFQLRKELNVFASEEGGATEDISSYAATADSSGITEWNTSDKFTNEMTLTENAKYTVSQLAPNLSFLPEQATDLTGAVDYYSGNALCNDRENLYIWPFNSPQRRLACIRIPLHEEHEVLSGAPLCCFTWPSAGEESEQTKSAGVLIVHANSGLVQFYEDIHTINSVSTLISKSRVIQLDLRFRDREHATDVVNAEPSGILVATSFGRLLLLTIRDSSGKPCLKLRQQLIKSQVGFFSGAMNTFKDIVAIKPSLITGKGERLLLTITRGGELKIWNVSATMSSYKRVEVNVYQQILESLQELYPFAYGSLQILDLNPLPSDPYSLLVLSSISDGKETYYILTAIKVEESSFSIFSVYRLNTYTKANDKKPRLFIAGDLENGEQPIEPQNVPVYLLFEDAVVITQAFTQLDSNYPLRKKWEDLVSLKEDSMVLGHGNDEKALYLINGNRGVVKIEAKMEPSEDYRFVKSHIDQAVYFSEGHHHHHH” the “soluble on expression in E. coli” value was “soluble”. For “MGKKIITISREYGSGGRQVGLTVAKKLGMEFYDKELIDAAAKEIGFPTEMIADREQRLTNSLLYNFAMGTLYGIAYPREPKVSELPLTEQIYQAQKKAIEEAAKRGSCIFVGRCADYILKSRPDVLRVFIYADRDIRKRRAIEEYGEIEEYIDEFMYQTDKRRRIHYENYTNQKWGSRENYDLMLNSGDLGLDKCVELLCEAVK”, the “soluble on expression in E. coli” value was “not soluble”. In the case of “SEKMSRPLPLNPTFIPPPYGVLRSLLENPLKLPLHHEDAFSKDKDKEKKLDDESNSPTVPQSAFLGPTLWDKTLPYDGDTFQLEYMDLEEFLSENGIPPSPSQHDHSPHPPGLQPASSAAPSVMDLSSRASAPLHPGIPSPNCMQSPIRPGQLLPANRNTPSPIDPDTIQVPVGYEPDPADLALSSIPGQEMFDPRKRKFSEEELKPQPMIKKARKVFIPDDLKDDKYWARRRKNNMAAKRSRDARRLKENQIAIRASFLEKENSALRQEVADLRKELGKCKNILAKYEARHGPL”, the “soluble on expression in E. coli” value is reported as “soluble”. For “MNESVDTDEATTPLVSAIIPTYGRNERLSSAIQSVLEQTYDNIELFVVDDASPTPVRETLDSFDPTVENSFRILRHDENQGANAARNTGIRASDGRYVAFLDDDDQWDETKITKQVQAFQESDSETGVVYTGVRKDGPEGTTVSTPVASGDVMKDLLTGTNFGQFSSVMVDTTVIETAGLPDERLPAWQDREWFFRLAQHTHFRPVRETLTYRQTGLPGSITKKYEQKRDVAYPMLISKHDWVAAEYGIYYERMFKATMRRSLARSAVRADRYKEARKYFLLSALANPLYWPVYPHLFASLGGKWSYESIASLRQQVTNGPASGT”, the “soluble on expression in E. coli” value was “not soluble”. For “MGSDKIHHHHHHMSHRKALLIHNGNAANKNIEKALGAVVPVLSHHLDEVIIKQTKKKDHAYHFCRSIDDSVDTVFILGGDGTIHQCINAISALERKPAVGILPGGTSNDFSRVLGIPQNLAKAAEALMAGKKTSVDVCQMNDRYFLNFWGIGLIAETSNQINETEKALLGKISYFTSALRTVSSAASFPMTLKIDGEEIKEEAVMLLVMNGQYIGTNRIPLPDASIEDGLLDVLICRNTNLTALRELMSMEQGSIDRFTGELSYVQASRIEIETDTAKKADMDGEVYTHTPAVIQVLPQHIDMLVPANE”, the “soluble on expression in E. coli” value was “not soluble”. In the case of “MWLDRRGWLRVLGHWRYDLRRPSFTRTWSGDKGPMAETVSTQVGTEGGLRASHQQNGDAGGDAKVELSPGPPKPAGREVEPAPVGGEHPSAAAPGPGKHKKRRGATRERVVPPPKKRRTGVSFGDEHFAETSYYFEGGLRKVRPYYFDFRTYCKGRWVGHSLLHVFSTEFRAQPLAYYEAAVRAGRLQLNEKPVQDLNIVLKDNDFLRNTVHRHEPPVTAEPIRLLAENEDVVVVDKPSSIPVHPCGRFRHNTVIFILGKEHQLKELHPLHRLDRLTSGVLMFAKTAAVSERIHEQVRDRQLEKEYVCRVEGEFPTEEVTCKEPILVVSYKVGVCRVDPRGKPCETVFQRLSYNGQSSVVRCRPLTGRTHQIRVHLQFLGHPILNDPIYNSVAWGPSRGRGGYIPKTNEELLRDLVAEHQAKQSLDVLDLCEGDLSPGLTDSTAPSSELGKDDLEELAAAAQKMEEVAEAAPQELDTIALASEKAVETDVMNQETDPLCAECRLVRQDPLPQDLVMFLHALRYKGPGFEYFSPMPAWAQDDWQKD”, the “soluble on expression in E. coli” value is reported as “soluble”. For “MFLYTETDQNLQACIDACNHCYRTCLRMAMNHCLEAGGKHVEADHLRLMMNCAEICQTSLNFMLSGSRFSPKVCGVCAEICDACAKSCEQLDGMEECVQTCRQCAEHCRKMAALEHHHHHH”, the “soluble on expression in E. coli” value was “soluble”. In the case of “MAPKFTLNQERDNDRERTRASYNNDRRRNDYDPRACYKCGKLGHFARSCHVVTQPTTAYITCYFCSEEGHRSNGCPNKRTDQVNPKGHCYWCGNQDHRFNLIIWRSRCLFRLMKPKYAF”, the “soluble on expression in E. coli” value is reported as “soluble”. With “MAHHHHHHMGTLEAQTQGPGSMQMNMVETEPVQGCRDFPPETMRLRKYLFDVFHSTARKFGFEEYDSPVLESEELYIRKAGEEITEQMFNFITKGGHRVALRPEMTPSLARQLLAKGRSLLLPAKWYSIPQCWRYEAITRGRRREHYQWNMDIIGVKSVSSEVELVCAACTAMQSLGLSSKDVGVKINSRKILQTVVEQAGVSADKFAPVCVIVDKMEKLPREEVVAQLAAIGLESNVVDAITSTLSLKTIDEIAQRIGEEHEAVRELRDFITQIEAYGFGDWVIFDASVVRGLAYYTGIVFEGFDRDGNFRALCGGGRYDNLLTTYGSPTAVPCVGFGFGDCVIVELLNEKKLLPELHHVVDDLVIPFDETMRPHALSILRRLRDAGRSADIVFDKKKVVQAFNYADRIGALRAVLVAPDEWARGEVRVKMLREGAGREEGANERGIVLPVDKIV” the “soluble on expression in E. coli” value was “soluble”. With “PKISQLVAPFELTQNNNDKAILLIHGLTDSPFSFHDLSQFFYQQGFTVRTLLLPGHGVAPSELLNTDYQAWQQAATFAIDQTLNDYQQVYLGGLSTGGALIFNYLMQQKQVDEKIKGLFMWSPATKAKSDLAWLAQYIDGIPFVDWIDLDADIDFAKYESFPYNAGAQVHALMNLVVGEGANASRQMHDIPLFVVASEHDQTIDTAHTLQLVQQWQLAS” the “soluble on expression in E. coli” value was “not soluble”. For “MGHHHHHHSHPPERQINLSNIRAGNLARRAAATQPDAKDTPDEPWAFPAREFLRKKLIGKEVCFTIENKTPQGREYGMIYLGKDTNGENIAESLVAEGLATRREGMRANNPE”, the “soluble on expression in E. coli” value was “not soluble”. In the case of “MESGVPLVVVLRDVLEYVDDTSEAQYAINTDGVLVNGDSVGDVNRPIGMFDILAFPDRDEYYRVFPDEGGRLGLTEIDADAAGSKLNKVTDKTTVSGGRTQLNFHDGSNLALDEDAYAGGDSVVVDTDTNEIVAHFQYEEGALVTAVAGQHAGDIGEIAEINVQPGSASNTVRVDDENGGFETIAEYVVVIDENFLEHHHHHH”, the “soluble on expression in E. coli” value is reported as “soluble”. In the case of “MGSDKIHHHHHHMIRSLWTAKTGLESQQVKLDVISNNLSNVSTNGFKRSRPVFEDLLYQNVRQPGAQASAVDTLPSGLQVGTGVRPVATERLHTQGGLQNTDNSKDLAINGQGFFAVQMPDGTSAYTRDGSFQIDENGQMVTAGGYPLDPPIVIPENALSVSISQDGVVSVTQPGDTAAQEVGQLTLSKFINPAGLQSMGENLYQETDASGPRNDLIPGMEGAGRLYQGYVETSNVNVVEEMVSMIETQRAYEINSKAVETSDQMLSRLTQL”, the “soluble on expression in E. coli” value is reported as “not soluble”. For “MYDNTTDTKMQAERQKKSCTTVGGVLAYSVPTGLHRCDSAVTRVEEVHMAEMVEIPAALYGRGAVRVVPVDSTVRLDVKIPAALMRKLMIESNRSGVPLTKIVDRLLSAAIAQDSEQEEIRPR”, the “soluble on expression in E. coli” value was “not soluble”. With “SFDRALKPFLQSCHLRMLTDPVDQCVAYHLGRVRESLPELQIEIIADYEVHPNRRPKILAQTAAHVAGAAYYYQRQDVEADPWGNQRISGVCIHPRFGGWFAIRGVVLLPGIEVPDLPPRKPHDCVPTRADRIALLEGFNFHWRDWTYRDAVTPQERYSEEQKAYFSTPPAQRLALLGLAQPSEKPSSPSPDLPFTTPAPKKPGNPSRARSWLSPRVSPPASPGP” the “soluble on expression in E. coli” value was “soluble”. In the case of “MPKVKTNRVKYPEGWELIEPTLRELDAKMREAETDSHDGKRKCETLWPIFKVSHQRSRYVYDLYYRREEISKELYEFCLDQGYADRSLIAKWKKSGYERLCCLRCIQPRDHNYGTTCVCRVPKHLREEKVVECVHCGCQGCASGD”, the “soluble on expression in E. coli” value is reported as “not soluble”. With “MSKGKVCLAYSGGLDTSVILAWLLDQGYEVVAFMANVGQEEDFDAAKEKALKIGACKFVCVDCREDFVKDILFPAVQVNAVYEDVYLLGTSLARPVIAKAQIDVAKQEGCFAVSHGCTGKGNDQIRFELSFYALKPDVKCITPWRMPEFFERFAGRKDLLDYAAQKGIPVAQTKAKPWSTDENQAHISYEAGILEDPDTTPPKDMWKLIVDPMDAPDQPQDLTIDFERGLPVKLTYTDNKTSKEVSVTKPLDVFLAASNLARANGVGRIDIVEDRYINLKSRGCYEQAPLTVLRKAHVDLEGLTLDKEVRQLRDSFVTPNYSRLIYNGFLLHPECEYIRSMIQPSQNSVNGTVRVRLYKGNVIILGRSTKTEKLYDPTESSMDELTGFLPTDTTGFIAIQAIRIKKYGESKKTKGEELTL” the “soluble on expression in E. coli” value was “soluble”. With “MGSDKIHHHHHHLRALGYQGRDVEVVALNDAQYLVAACDSCGAIGEKELDAVKVPWRVTGRMTARVALLEVLAVGAVPQMLSIAIANEPLPAGEEIMKGVREELKAMNLLSLPAAVSTEKNMPTEQTGLGITVIGLCDQDKLRIGRARPGNSLFCLGLPKVGTEAADPEDPDILQGIHLIQLLNIPGVYDIIPVGSQGIRGEAEALAQAVGARFGEDSQCRLDINKSAGPSTCLIFTAAEDIELGDFGKLPIHKIGRLEEDGGGGLLTENED” the “soluble on expression in E. coli” value was “not soluble”. With “MSNARIGIDMSKIYAPKSIDLSSFQLPDEKLQTKYGLPHKVEFCKSCVISNQRPNSAVEYEHKKESKKHTIHFDDEGICDACRVAERKKSTINWEERDRQLRELCDRFRSKDGSYDCVVPGSGGKDSFYAAHILKYKYGMNPLTVTWAPHMYTPWGWRNFQSWIHAGFDNHLFTPNGRVHRLLTRLAVENLFHPFQPFMIGQKAYAPKMALLHKIKLVVYGENEAEYGNPIGDTESAKRDWKYFTADDKSKIFLGGTSVQELKSDFGLNDNDLDAYLPADPQQIEEQQVEVHYLGYYLKWHPQSCYYYSVEHGGFEASPERTPGTYSKYNSIDDKIDDFHYYTTLTKFGIGRATYDASQEIRSGDITVEEGVALVKRFDQEFPERFAEEIFKYLSINLKEFPIASQMFEQPIMDRAYFMALADTFRSPHLWKKDGEQWKLRHQVTNLEKTKAEYLDLETV” the “soluble on expression in E. coli” value was “not soluble”. In the case of “MDDKKDNRHLSKPAYREECTGDTERSTTAYMDILEDVSTGSTSKLPLEAKFVKISNNISEKENLPKEKEIGGVKGLEPTRYGDWQHKGKVTDF”, the “soluble on expression in E. coli” value is reported as “soluble”. In the case of “QFLFSMSTGPFICTVKDNQVFVANLPWTMLEGDDIQVGKEFAARVEDCTNVKHDMAPTCTKPPPFCGPQDMKMFNFVGCSVLGNKLFIDQKYVRDLTAKDHAEVQTFREKIAAFEEQQENQPPSSGMPHGAVPAGGLSPPPPPSFCTVQ”, the “soluble on expression in E. coli” value is reported as “soluble”. With “AHHHHHHGSPRLIKDRVPTPERSVGERVRDFGEVNLGYSWELALREAERCLQCPVEYAPCIKGCPVHINIPGFIKALRENRDNPSKAVREALRIIWRDNTLPAITGRVCPQEEQCEGACVVGKVGDPINIGKLERFVADYAREHGIDDELLLEEIKGIKRNGKKVAIIGAGPAGLTCAADLAKMGYEVTIYEALHQPGGVLIYGIPEFRLPKEIVKKELENLRRLGVKIETNVLVGKTITFEELREEYDAIFIGTGAGTPRIYPWPGVNLNGIYSANEFLTRINLMKAYKFPEYDTPIKVGKRVAVIGGGNTAMDAARSALRLGAEVWILYRRTRKEMTAREEEIKHAEEEGVKFMFLVTPKRFIGDENGNLKAIELEKMKLGEPDESGRRRPIPTGETFIMEFDTAIIAIGQTPNKTFLETVPGLKVDEWGRIVVDENLMTSIPGVFAGGDAIRGEATVILAMGDGRKAAKAIHQYLSKEK” the “soluble on expression in E. coli” value was “soluble”. In the case of “ARGHRHTCKVMVLKEEAAGSERALALDMREGQRVFHSLIVHFENDIPVQIEDRFVNAQVAPDYLKQDFTLQTPYAYLSQVAPLTEGEHVVEAILAEADECKLLQIDAGEPCLLIRRRTWSGRQPVTAARLIHPGSRHRLEGRFTK”, the “soluble on expression in E. coli” value is reported as “soluble”.
